Assays:
[1] = target: T1, K63-linked diUb (made from UbD77 and UbK63R) (UniProt P0CG47 1-76; P0CG47 1-76, UbD77 | UbK63R, K63-linked to the other Ub (isopeptide bond between K63 and G76) | K63-linked to the other Ub (isopeptide bond between K63 and G76)); assay: NMR titration; 15N-labelled Josephin (C14A) 0.05 mM in 20 mM sodium phosphate pH 6.5, 2 mM DTT, 298 K, 600 MHz; stepwise additions of unlabelled K48- or K63-linked diUb up to 10 and 2.5 fold molar excess; chemical shift perturbation; details: both partners purified
T1 construct: ubiquitin, mutant UbD77; ubiquitin, mutant UbK63R; By the usual protocol G76 of UbK63R is joined to K63 of UbD77; also called K63-linked diUb chains; K63-diUb; source: recombinant Ub mutants joined with E1, Ubc13 and Uev1a by the same protocol, purified on a monoS cation exchange column; copies: 1 + 1

[2] = target: T2, K48-linked diUb (made from UbD77 and UbK48C) (UniProt P0CG47 1-76; P0CG47 1-76, UbD77 | UbK48C, K48-linked to the other Ub (isopeptide bond between K48 and G76) | K48-linked to the other Ub (isopeptide bond between K48 and G76)); assay: as above; details: both partners purified
T2 construct: ubiquitin, mutant UbD77; ubiquitin, mutant UbK48C; also called K48-linked diUb chains; K48-diUb; copies: 1 + 1

binding result [1]: binds
binding result [2]: binds
B1: Josephin domain of ataxin-3 (amino acids 1-182), C14A mutant, 15N labelled (domain or fragment, UniProt P54252 1-182, looked up)
chain: MESIFHEKQEGSLAAQHCLNNLLQGEYFSPVELSSIAHQLDEEERMRMAEGGVTSEDYRTFLQQPSGNMDDSGFFSIQVISNALKVWGLELILFNSPEYQRLRIDPINERSFICNYKEHWFTVRKLGKQWFNLNSLLTGPELISDTYLALFLAQLQQEGYSIFVVKGDLPDCEADQLLQMIR
modifications: 15N labelled
notes: ataxin-3, N-terminal catalytic Josephin domain, amino acids 1-182; catalytic cysteine mutated so that no cleavage could occur; The methods speak of titrations of 15N Josephin or of the C14A mutant; the results say that C14A was used; also called isolated Josephin domain; C14A Josephin mutant; source: E. coli BL21(DE3), purified as previously described [35]; grown in synthetic medium with 15NH4Cl

From article PMC2928749, “Understanding the Role of the Josephin Domain in the PolyUb Binding and Cleavage Properties of Ataxin-3” (PLoS ONE, 2010)
